The values that follow come from the RNAGym collection of RNA variant scans (doi:10.1093/nar/gkz1192).

First the molecules themselves.
B1: CPEB3 Ribozyme (parent)
chain: UAACAGGGGGCCACAGCAGAAGCGUUCACGUCGCAGCCCCUGUCAGAUUCUGGUGAAUCUGCGAAUUCUGCUGUAUAUCUC

The series covers variants of B1. Nature of the series: self-cleavage, relative activity (ratio to wild type); higher = more cleavage; in vitro, sequencing. The essentials: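 Relative activity compares each variant's cleaved/total read fraction with that of the unmutated ribozyme. To get these fractions, barcoded CPEB3 ribozyme libraries from rounds of error-prone PCR were transcribed with T7 RNA polymerase for 5 hours at 37°C and then given 15 min of DNase I treatment before EDTA was added. The RNAs were reverse transcribed with template switching and sequenced on Illumina, and DNA sequencing linked barcodes to variants. A minimum of 5 reads applied, and three batches were averaged.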
As for UAACAGGGGGCCACAGCAGAAGCGUUCACGUCGCAGGCCCUGUCAGAUUCUGGUGAAUCUGCGAAUUCUGCUGUAUAUCCC [C37G U80C], the self-cleavage turned out to be 1.

Turning to UAACAGGGGGCCGCAGCAGAAGCGUUCACGUCGCAGCCCCUGUCAAAUUCUGGUGAAUCUGCGAAUUCUGCUGUAUAUCUC [A13G G46A], the self-cleavage was 0.21.

Take UAACAGGGGGCCACAGCAGAAGCGUUCACGUCGCAGCCCCUGUCAGAUUCUGGUGAAUCUGCGAAUCCUGCUGUAUAUCCC [U67C U80C]: the self-cleavage turned out to be 0.4.

UAACAGGGGGCCACAGCAGAAGCGUUCACGUCGCAGCCGCUGUCAGAUUCUGGUGAAUCAGCGAAUUCUGCUGUAUAUCUC [C39G U60A]: the self-cleavage is 0.25.

Regarding UAACAGCGGGCCACAGCAGAGGCGUUCACGUCGCAGCCCCUGUCAGAUUCUGGUGAAUCUGCGAAUUCUGCUGUAUAUCUC [G7C A21G], the self-cleavage was 0.34.

In the case of GAACAGGGGGCCACAGCAGAAGCGUUCACGUCGCAGCACCUGUCAGAUUCUGGUGAAUCUGCGAAUUCUGCUGUAUAUCUC [U1G C38A], the self-cleavage is 0.48.

In the case of UAACAGGGGGCCGCAGCAGAAGCGUUCACGUCGCAGCCCCUGUCAGAUCCUGGUGAAUCUGCGAAUUCUGCUGUAUAUCUC [A13G U49C], the self-cleavage was 0.25.

Take UGACAGGGGGCCACAGCAGAAGCGUUCACGUAGCAGCCCCUGUCAGAUUCUGGUGAAUCUGCGAAUUCUGCUGUAUAUCUC [A2G C32A]: the self-cleavage was 0.1.

Regarding UAACAGCGGGCCACUGCAGAAGCGUUCACGUCGCAGCCCCUGUCAGAUUCUGGUGAAUCUGCGAAUUCUGCUGUAUAUCUC [G7C A15U], the self-cleavage amounted to 0.18.

Consider UAACAGGGGACCACAGCAGAAGCGUUCACGUCGCAGCCCCUGUCAGAUUCUGGUGAAUCUGCGAAUUCUGAUGUAUAUCUC [G10A C71A], for which the self-cleavage is 0.11.

On to UAACAGGGGGCCGCAGCAGAAGCGUUCACGUCGCAGCCCCAGUCAGAUUCUGGUGAAUCUGCGAAUUCUGCUGUAUAUCUC [A13G U41A], for which the self-cleavage amounted to 0.27.

For the variant UAACAGGGGGCCACAGCAGAAGCGUCCACGUCGCAGCCCCUGUCAGAUUCUGGCGAAUCUGCGAAUUCUGCUGUAUAUCUC [U26C U54C], the self-cleavage amounted to 0.44.

As for UAACAGGGGGCCACAGCAGAAGCGUUCACGUCGCAGCCCCUGUCGGAUUUUGGUGAAUCUGCGAAUUCUGCUGUAUAUCUC [A45G C50U], the self-cleavage stood at 0.74.

Take UAACAGGGGGCCACAGCAGAAGCGUUCACGUCGCAGCCACCGUCAGAUUCUGGUGAAUCUGCGAAUUCUGCUGUAUAUCUC [C39A U41C]: the self-cleavage stood at 0.35.

Regarding UAACAGGGGGCCACAGCAGAAGCGUCCACGUCGCAGCCCCUGUCAGAUUCUGGUGAAUCUGCGAAUUCUGCUGUAUAUCCC [U26C U80C], the self-cleavage came to 0.56.

Turning to UAACAGGGGGCCACAGCAGAAGCGUUCACGUCGCAGCCCCUGUCAGAUUCUGGUGAAUCUGCGAAUCCUGCUCUAUAUCUC [U67C G73C], the self-cleavage was 0.46.

On to UAACUGCGGGCCACAGCAGAAGCGUUCACGUCGCAGCCCCUGUCAGAUUCUGGUGAAUCUGCGAAUUCUGCUGUAUAUCUC [A5U G7C], for which the self-cleavage turned out to be 0.48.

Turning to UAAAAGGGGGCCACAGCAGAAGCGUUCACGUCGCAGCCCCUGUCAGAUUCUGGUGAAUCUGCGAAUUCUGCUGUAUAUCAC [C4A U80A], the self-cleavage worked out at 1.06.

Consider UAACAGGGGGCCACAGCAGAGGAGUUCACGUCGCAGCCCCUGUCAGAUUCUGGUGAAUCUGCGAAUUCUGCUGUAUAUCUC [A21G C23A], for which the self-cleavage was found to be 0.32.

On to UAACAGGAGGCCACAGCAGAAGCGCUCACGUCGCAGCCCCUGUCAGAUUCUGGUGAAUCUGCGAAUUCUGCUGUAUAUCUC [G8A U25C], for which the self-cleavage was 0.26.

UAACAGGGGGCCCCAGCAGAAGCGCUCACGUCGCAGCCCCUGUCAGAUUCUGGUGAAUCUGCGAAUUCUGCUGUAUAUCUC [A13C U25C]: the self-cleavage was found to be 0.31.

Take UAACAGGGGGCCACAGCAGAAGCGUUCACGUCGCAGCCCUUGUCAGAUUCUGGUGAAUCUGCGAAAUCUGCUGUAUAUCUC [C40U U66A]: the self-cleavage was found to be 0.23.

Take UAACAGGGGGCCACCGCAGAAGCGUUCACGUCGCAGCCCCUGUCAGAUUCUGGUGAGUCUGCGAAUUCUGCUGUAUAUCUC [A15C A57G]: the self-cleavage is 0.43.

Turning to UUACAGGGGGCUACAGCAGAAGCGUUCACGUCGCAGCCCCUGUCAGAUUCUGGUGAAUCUGCGAAUUCUGCUGUAUAUCUC [A2U C12U], the self-cleavage was found to be 1.18.

Turning to UAACAAGGGGCCACAGCAGAAGCGUCCACGUCGCAGCCCCUGUCAGAUUCUGGUGAAUCUGCGAAUUCUGCUGUAUAUCUC [G6A U26C], the self-cleavage stood at 0.2.

Take UUACAGGGGGCCACAGCAGAAGCGUUCACGUCGCAGCCCUUGUCAGAUUCUGGUGAAUCUGCGAAUUCUGCUGUAUAUCUC [A2U C40U]: the self-cleavage turned out to be 0.89.

In the case of UAACAGGGGGCCACAGCAGAAGCGUUCACGUCGCAGCCCCUAUCAGAUUCUGGUGAAUCUGCGAGUUCUGCUGUAUAUCUC [G42A A65G], the self-cleavage was 0.42.

UAACAGGGGGCCACAGCAGAAGCGUUCACGUCGCAGCCCCGGUCAGAUUCUGGUGAAUCUGCGAAUUCUGCUGUAUAUCUU [U41G C81U]: the self-cleavage amounted to 0.33.

For UAACAGGGGGCCACAGCAGAAGCGUUCACGUCGCAGCCCCUGUCAGAUUCUUGUGAAUCUGCGAAUUCUGCUGUAAAUCUC [G52U U76A], the self-cleavage was 1.24.

Regarding UAUCAGGGGGCCACAGCAGAAGCGUUCACGUCGCAGCCCCUGUCAGAUUCUGGUGAAUCUGCGAAUUCUGCAGUAUAUCUC [A3U U72A], the self-cleavage came to 1.

Regarding UAACAGGGGGCCACAGCAGAAGCGUUCACGUCGCAGCCCCUGUCAGAUUCUGGUGAAUCUGCGAAUUCAGCUGCAUAUCUC [U69A U74C], the self-cleavage was found to be 0.96.

In the case of UAACAGGGGGCCACAGCAGAAGCGUUCACGUCGUAGCCCCUGCCAGAUUCUGGUGAAUCUGCGAAUUCUGCUGUAUAUCUC [C34U U43C], the self-cleavage was determined as 0.22.

As for UAACAGGGGGCCACAGCAGAAGCGUUCACGUCGCAGCCCCUGUCAGAUUCUGGUGAAUCAGCGAAUUCUGCUGUUUAUCUC [U60A A75U], the self-cleavage worked out at 0.62.

Turning to UAACAGGGGGCCACAGCAGAAGCGUACACGUCGCAGCCCCUGUCAGAUUCUGGUGAAUCUGCGAAUUAUGCUGUAUAUCUC [U26A C68A], the self-cleavage stood at 0.31.
